Biological target: T1, ALCAM/MEMD/CD166 (human, UniProt Q13740 28-583)
T1 construct: whole, on cells; Endogenous antigen on Du-145 prostate cancer cells (FACS) and in lysates of surface-biotinylated Du-145 cells (IP and Western blot)
T1 sequence (looked up): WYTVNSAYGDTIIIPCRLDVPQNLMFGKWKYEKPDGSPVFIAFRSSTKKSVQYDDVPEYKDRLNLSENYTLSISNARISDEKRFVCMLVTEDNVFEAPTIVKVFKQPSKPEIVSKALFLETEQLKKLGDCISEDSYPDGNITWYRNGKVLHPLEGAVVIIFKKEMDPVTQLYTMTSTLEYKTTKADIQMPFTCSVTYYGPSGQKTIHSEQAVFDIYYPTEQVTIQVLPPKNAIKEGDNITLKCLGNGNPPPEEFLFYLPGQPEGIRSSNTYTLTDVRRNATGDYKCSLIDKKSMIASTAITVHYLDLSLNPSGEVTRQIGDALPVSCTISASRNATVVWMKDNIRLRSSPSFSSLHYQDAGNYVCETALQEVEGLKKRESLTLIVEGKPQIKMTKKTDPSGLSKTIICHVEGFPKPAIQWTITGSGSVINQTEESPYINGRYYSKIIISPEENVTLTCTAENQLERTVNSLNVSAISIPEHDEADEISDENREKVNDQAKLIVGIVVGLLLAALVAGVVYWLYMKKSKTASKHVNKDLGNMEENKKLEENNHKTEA
Assay: FACS on Du-145 cells, equilibrium binding at 4 C overnight, apparent KD by curve fitting of MFI
Procedure: Monodispersed DU-145 cells were incubated with varying concentrations of IgG1s at 4° C. overnight to allow equilibrium binding. After washing, bound human IgG1 s were detected by R-phycoerythrin-conjugated goat anti-human secondary antibody and analyzed by FACS. Mean fluorescence intensity (MFI) values were plotted and the KD was determined by curve fitting using GraphPad (GraphPad Software, San Diego, Calif.).

Kd: 4.4 pM
B1: anti-ALCAM IgG1 (585II41.1, also known as H3) (antibody, V domains shown)
VH: QVQLVESGGGLVQPGGSLRLSCAASGFTFSSYAMSWVRQAPGKGLEWVSAISGSGGSTYYADSVKGRFTISRDNSKDTLYLQMNSLRAEDTAVYYCASRSLLDYWGQGTLVTVSS
VL: NFMLTQDPAVSVALGQTVRITCQGDSLRSYYASWYQQKPGQAPLLVIYGKNNRPSGIPDRFSGSSSGNTASLTITGAQAEDEADYYCNSRDSSGNPVFGGGTKVTVL
notes: also called H3 IgG; H3 IgG1

— patent publication US20170233488A1 (University of California, published 2017)
